US20190225691A1 (SHANGHAI HENLIUS BIOTECH, published 2019)
Like-named read-outs stand apart in the source and are kept apart here.

How the values were obtained:
human PD-L1 ECD-His [1] = target: T1, human PD-L1 ECD-His (human, UniProt Q9NZQ7 19-238); test: SPR, 25 C, antibody captured by anti-human IgG Fc, hPD-L1_ECD-His analyte, 1:1 fit
T1 construct: extracellular domain; Analyte in all SPR and BLI runs; also called hPD-L1_ECD-His; hPD-L1 ECD-His; not shown: His tag
Procedure: Experiments were carried out at 25° C., and measurements were made with serial dilutions of hPD-L1_ECD-His from 55.4 nM to 11.1 nM passing over the captured antibodies in HBS-P+ buffer supplemented with 0.1% (w/v) BSA with a flow rate of […]. All data were analyzed with the evaluation software and curves were fit with a 1:1 Langmuir binding model. Data are representative of two independent experiments performed in duplicate.

[2] = target: T2, human PD-L1 on cells (PHA-activated human T cells); PD-L1-transfected CHO-S cells; A375 melanoma cells; … (human, UniProt Q9NZQ7 19-290); test: flow cytometry on PHA-activated human CD3+ T cells, FITC-labeled anti-human IgG Fcγ, MFI
T2 construct: whole, on cells; also called PD-L1 expressing T cells; PD-L1 expressing CHO-S cells
T2 sequence (Q9NZQ7 19-290): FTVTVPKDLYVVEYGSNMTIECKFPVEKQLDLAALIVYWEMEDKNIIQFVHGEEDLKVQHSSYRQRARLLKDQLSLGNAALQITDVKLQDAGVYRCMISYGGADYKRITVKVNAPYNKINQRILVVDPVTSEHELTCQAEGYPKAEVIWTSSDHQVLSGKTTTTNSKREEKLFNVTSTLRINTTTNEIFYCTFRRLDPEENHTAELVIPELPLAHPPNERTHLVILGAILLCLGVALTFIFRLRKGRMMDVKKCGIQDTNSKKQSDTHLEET
Procedure: Human T cells were isolated from PBMC using MagniSortTM Human T Cell Enrichment Kit (eBioscience). Isolated T cells were activated by 5 μg/mL phytohemagglutinin (PHA) for 3 days to stimulate the PD-L1 expression. Activated T cells were collected and incubated in FACS buffer (PBS with 2% FBS) with human Fc blocker (eBioscience) for 20 minutes at 4° C. Binding of anti-PD-L1 monoclonal antibody was assessed by incubating the activated T cells with the serial-diluted antibodies in FACS buffer. The cells were washed with flow buffer and the binding was detected with a FITC-labeled rabbit anti-human IgG FcγAb. Cells were also stained with mouse anti-human CD3 PE-Cy7 (eBioscience) for gating CD3-positive T cells. Flow cytometric analyses were performed using the Cytomics FC 500 (Beckman Coulter Inc.).

[3] = target: T3, recombinant human PD-L1/Fc fusion protein (human, UniProt Q9NZQ7 19-238); test: ELISA: human PD-L1/Fc coated (15 ng/well), serially diluted antibody, HRP-conjugated secondary antibody, TMB, A450
T3 construct: also called hPD-L1 ECD-Fc; not shown: Fc part
T3 sequence (Q9NZQ7 19-238 limits assumed): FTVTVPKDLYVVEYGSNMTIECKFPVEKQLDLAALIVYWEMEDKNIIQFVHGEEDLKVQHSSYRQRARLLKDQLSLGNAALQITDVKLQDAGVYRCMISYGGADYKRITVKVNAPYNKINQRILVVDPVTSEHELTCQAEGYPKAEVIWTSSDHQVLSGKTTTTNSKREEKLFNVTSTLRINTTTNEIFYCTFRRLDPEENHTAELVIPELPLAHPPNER
Procedure: ELISA assays were performed to assess the binding of selected antibodies to recombinant human PD-L1/Fc fusion proteins. Fifteen nanograms per well of human PD-L1/Fc proteins were coated on 96-well EIA microplate overnight at 4° C. After blocking with 5% skim milk, serially diluted antibodies were added and incubated at RT for 1 hour. The unbound antibodies were removed and wells were washed with PBST twice. The HRP-conjugated secondary antibody was added to the wells, and, following an incubation, excess secondary antibody was washed away. TMB was added to the wells, and following incubation, the reaction was stopped, and HRP activity was measured by monitoring the increase in absorbance at 450 nm.

[4] = target: T2, human PD-L1 on cells (PHA-activated …); test: flow cytometry blocking assay: PD-L1 expressing CHO-S cells incubated with antibody, then biotin-labeled PD-1-Fc and streptavidin-PE; MFI of bound PD-1
Procedure: PD-L1 expressing CHO-S cells were suspended in FACS buffer (PBS with 4% FBS). Various concentrations of tested antibodies were added to the cell suspension (3.5E5 cells/well) and incubated at 4° C. for 30 minutes. […] The cells were washed and then stained with streptavidin-PE at 4° C. for 30 minutes. Flow cytometric analyses were performed using the Cytomics FC 500 (Beckman Coulter Inc.).
Anti-PD-L1 reference antibody and Avastin were used as the positive and negative control, respectively.

human PD-L1 ECD-His [5] = target: T1, human PD-L1 ECD-His; test: SPR, ratio of KD to ref-1
Procedure: (§1) The binding affinity and kinetics were measured using surface plasmon resonance (SPR). […] Experiments were carried out at 25° C., and measurements were made with serial dilutions of hPD-L1-His from 19.1 nM to 0.71 nM passing over the captured antibodies in HBS-P+buffer supplemented with 0.1% (w/v) BSA with a flow rate of 25 μL/min. All data were analyzed with the evaluation software and curves were fit with a 1:1 Langmuir binding model. All the data are representative of two independent studies performed in duplicate.

human PD-L1 ECD-His [6] = target: T1, human PD-L1 ECD-His; test: SPR, 25 C, antibody captured by anti-human IgG Fc, hPD-L1-His analyte, 1:1 fit
Procedure: as §1

human PD-L1 ECD-His [7] = target: T1, human PD-L1 ECD-His; test: SPR, ratio of KD to ref-1; remark: listed apart in the source
human PD-L1 ECD-His [8] = target: T1, human PD-L1 ECD-His; test: SPR, hPD-L1-His, comparison of IgG isotypes of PL2#3

T1 sequence (Q9NZQ7 19-238): as the sequence (Q9NZQ7 19-238 limits assumed) above

Row | Binder | Kd (human PD-L1 ECD-His [1]) [nM] | koff (human PD-L1 ECD-His [1]) [s⁻¹] | kon (human PD-L1 ECD-His [1]) [M⁻¹ s⁻¹] | EC50 (read off the curve) [2] [µg/mL] | EC50 (read off the curve) [3] [µg/mL] | IC50 (read off the curve) [4] [µg/mL] | Improvement over ref-1 (human PD-L1 ECD-His [5]) [fold] | Kd (human PD-L1 ECD-His [6]) [nM] | koff (human PD-L1 ECD-His [6]) [s⁻¹] | kon (human PD-L1 ECD-His [6]) [M⁻¹ s⁻¹] | Improvement over ref-1 (human PD-L1 ECD-His [7]) [fold] | Kd (human PD-L1 ECD-His [8]) [nM] | koff (human PD-L1 ECD-His [8]) [s⁻¹] | kon (human PD-L1 ECD-His [8]) [M⁻¹ s⁻¹]
1 | PL12 (full-length, N297A mutant human IgG1) (antibody, V domains shown) VH: QVQLVQSGAEVKKPGSSVKVSCKASGGTFSSYAISWVRQAPGQGLEWMGRIIPILGIANYAQKFQGRVTITADKSTSTAYMELSSLRSEDTAVYYCARGIGSYSFGAFDIWGQGTMVTVSS VL: QSVLTQPPSVSGAPGQRVTISCTRSSSNIGAGHDVHWYQQLPGTAPKLLIYGNSNRPSGVPDRFSGSKSGTSASLAITGLQAEDGADYYCQSYDSSLTGVVFGGGTKLTVLG | 6.68 | 0.00267 | 416000 | ~0.03 | ~0.03 | ~0.2 | – | – | – | – | – | – | – | –
2 | PL3 (full-length, N297A mutant human IgG1) (antibody, V domains shown) VH: QVQLVQSGAEVKKPGSSVKVSCKASGGTFSSYTISWVRQAPGQGLEWMGRIIPILGIANYAQKFQGRVTITADKSTSTAYMELSSLRSEDTAVYYCARSRDGYSFGAFDIWGQGTLVTVSS VL: QSVVTQPPPVSGAPGQRVTISCTGSSSNIGAGYDVHWYQQLPGTAPKLLIYGNSNRPSGVPDRFSGSKSGTSASLAITGLQAEDEADYYCQSYDSSLSAPVVFGGGTKLTVLG | 11.9 | 0.0041 | 348000 | ~0.04 | ~0.02 | ~0.1 | – | – | – | – | – | – | – | –
3 | PL2 (full-length, N297A mutant human IgG1) (antibody, V domains shown) VH: EVQLVQSGGGLVKPGGSLRLSCAASGFTFSSYTMNWVRQAPGKGLEWVSSISSGSDYLYYADSVKGRFTISRDNAKNSLYLQMNSLRAEDTAVYYCARNELRWYPQAGAFDIWGQGTMVTVSS VL: QSVVTQPPSMSAAPGQNVTISCSGSSSYIESSYVSWYQQLPGTAPRLLIYDDDMRPSGIPDRFSGSKSGTSATLAITGLQTGDEADYYCEIWDSGLGGVFGGGTKLTVLS | 8.72 | 0.0039 | 438000 | ~0.005 | ~0.009 | ~0.05 | – | – | – | – | – | – | – | –
4 | PL1 (full-length, N297A mutant human IgG1) (antibody, V domains shown) VH: QIQLVQSGAEVKKPGSSVKVSCKASGGTFSSYAISWVRQAPGQGLEWMGRIIPILGIANYAQKFQGRVTITAGESTSTAYMELSSLRSEDTAVYYCAREGSSGWLGVLDYWGQGTLVTVSS VL: QAVLTQPSSVSGAPGQRVTISCTGSSSNVGAGYDVHWYQQLPGTAPKLLIYGNSNRPSGVPDRFSGSKSGTSASLAITGLQAEDEADYYCQSYDSSLSGWVFGGGTKLTVLG | 15.8 | 0.00453 | 291000 | – | ~0.004 | ~0.02 | – | – | – | – | – | – | – | –
5 | PL2 IgG2 (antibody, V domains shown) VH: EVQLVQSGGGLVKPGGSLRLSCAASGFTFSSYTMNWVRQAPGKGLEWVSSISSGSDYLYYADSVKGRFTISRDNAKNSLYLQMNSLRAEDTAVYYCARNELRWYPQAGAFDIWGQGTMVTVSS VL: QSVVTQPPSMSAAPGQNVTISCSGSSSYIESSYVSWYQQLPGTAPRLLIYDDDMRPSGIPDRFSGSKSGTSATLAITGLQTGDEADYYCEIWDSGLGGVFGGGTKLTVL | – | – | – | – | – | – | 1.21 | 6.96 | 0.00217 | 747000 | – | – | – | –
6 | PL2#3 IgG1 (antibody, V domains shown, Human IgG1) VH: EVQLVQSGGGLVKPGGSLRLSCAASGFTFSSYTMNWVRQAPGKGLEWVSSISSGSDYLYYADSVKGRFTISRDNAKNSLYLQMNSLRAEDTAVYYCARNELRWYPQAGAFDRWGQGTMVTVSS VL: QSVVTQPPSMSAAPGQRVTISCSGSSSYIESSYVGWYQQLPGTAPRLLIYDDDMRPSGIPDRFSGSKSGTSATLAITGLQTGDEADYYCEIWRSGLGGVFGGGTKLTVL | – | – | – | – | – | – | – | – | – | – | 2.53 | 0.25 | 0.000276 | 1.14e+06
7 | PL2#3 IgG2 (antibody, V domains shown, Human IgG2 backbone) VH: EVQLVQSGGGLVKPGGSLRLSCAASGFTFSSYTMNWVRQAPGKGLEWVSSISSGSDYLYYADSVKGRFTISRDNAKNSLYLQMNSLRAEDTAVYYCARNELRWYPQAGAFDRWGQGTMVTVSS VL: QSVVTQPPSMSAAPGQRVTISCSGSSSYIESSYVGWYQQLPGTAPRLLIYDDDMRPSGIPDRFSGSKSGTSATLAITGLQTGDEADYYCEIWRSGLGGVFGGGTKLTVL | – | – | – | – | – | – | 16.3 | 0.516 | 0.000557 | 1.32e+06 | 5.36 | 0.118 | 0.000162 | 1.34e+06
8 | PL2#3 IgG4 (antibody, V domains shown, Human IgG4) VH: EVQLVQSGGGLVKPGGSLRLSCAASGFTFSSYTMNWVRQAPGKGLEWVSSISSGSDYLYYADSVKGRFTISRDNAKNSLYLQMNSLRAEDTAVYYCARNELRWYPQAGAFDRWGQGTMVTVSS VL: QSVVTQPPSMSAAPGQRVTISCSGSSSYIESSYVGWYQQLPGTAPRLLIYDDDMRPSGIPDRFSGSKSGTSATLAITGLQTGDEADYYCEIWRSGLGGVFGGGTKLTVL | – | – | – | – | – | – | – | – | – | – | 2.64 | 0.239 | 0.000293 | 1.26e+06
9 | PL2#4 IgG2 (antibody, V domains shown, Human IgG2 backbone) VH: EVQLVQSGGGLVKPGGSLRLSCAASGFTFSSYTMNWVRQAPGKGLEWVSSISSGSDYLYYADSVKGRFTISRDNAKNSLYLQMNSLRAEDTAVYYCARNELRWYPLAGAFDIWGQGTMVTVSS VL: QSVVTQPPSMSAAPGQRVTISCSGVSSYIESSYVSWYQQLPGTAPRLLIYDDDMRPSGIPDRFSGSKSGTSATLAITGLQTGDEADYYCKIWDSGLGGVFGGGTKLTVL | – | – | – | – | – | – | 6.62 | 1.27 | 0.00099 | 882000 | – | – | – | –
10 | PL2#5 IgG2 (antibody, V domains shown, Human IgG2 backbone) VH: EVQLVQSGGGLVKPGGSLRLSCAASGFTFSSYTMNWVRQAPGKGLEWVSSISSGSDYLYYADSVKGRFTISRDNAKNSLYLQMNSLRAEDTAVYYCARNELRWYPFAGAFDIWGQGTMVTVSS VL: QSVVTQPPSMSAAPGQRVTISCSGSSSYIESSYVSWYQQLPGTAPRLLIYDDDMRPSGIPDRFSGSKSGTSATLAITGLQTGDEADYYCEIWDSRLGGVFGGGTKLTVL | – | – | – | – | – | – | 2.74 | 3.07 | 0.00221 | 812000 | – | – | – | –
11 | PL2#39 IgG2 (antibody, V domains shown, Human IgG2 backbone) VH: EVQLVQSGGGLVKPGGSLRLSCAASGFTFSSYTMNWVRQAPGKGLEWVSSISSGSDYLYYADSVKGRFTISRDNAKNSLYLQMNSLRAEDTAVYYCARNELRWYPKAGAFDIWGQGTMVTVSS VL: QSVVTQPPSMSAAPGQRVTISCSGSSSYITSSYVSWYQQLPGTAPRLLIYDDDMRPSGIPDRFSGSKSGTSATLAITGLQTGDEADYYCKIWDSGLGGVFGGGTKLTVL | – | – | – | – | – | – | 10.8 | 0.779 | 0.00143 | 2.04e+06 | – | – | – | –
12 | PL2 IgG1 (antibody, V domains shown) VH: EVQLVQSGGGLVKPGGSLRLSCAASGFTFSSYTMNWVRQAPGKGLEWVSSISSGSDYLYYADSVKGRFTISRDNAKNSLYLQMNSLRAEDTAVYYCARNELRWYPQAGAFDIWGQGTMVTVSS VL: QSVVTQPPSMSAAPGQNVTISCSGSSSYIESSYVSWYQQLPGTAPRLLIYDDDMRPSGIPDRFSGSKSGTSATLAITGLQTGDEADYYCEIWDSGLGGVFGGGTKLTVL | – | – | – | – | – | – | – | – | – | – | 0.41 | 1.56 | 0.00193 | 1.25e+06
